{"source": "paper PMC3632125", "about": "(Nucleic Acids Research, 2013)", "binders": {"B1": {"name": "Csm2 (natural protein)", "chain": "MEYEDLELITIWPSPTKNKLCQFIKQNLSKEHVVTQLFFIDATSSFPLSQFQKLVPPTLPENVRIYENIRINTCLDLEELSAITVKLLQILSMNKINAQRGTEDAVTEPLKIILYINGLEVMFRNSQFKSSPQRSHELLRDTLLKLRVMGNDENENASIRTLLEFPKEQLLDYYLKKNNNTRTSSVRSKRRRIKNGDSLAEYIWKYYADSLFE"}, "B2": {"name": "fluorescein-labelled fork (mixed)", "DNA 1": "TTTTTTTTTTTTTTTTTTTTCTTGACAAGCTTGCGCACT", "DNA 2": "AGTGCGCAAGCTTGTCAAGGCACTTTTTTTTTTTTTTTT"}, "B3": {"name": "3'-overhang (mixed)", "DNA 1": "CTGCGAGCTCGAATTCACTGGAGTGACCTC", "DNA 2": "GAGGTCACTCCAGTGAATTCGAGCTCGCAGTGTCTAGGTCGTGACTTTGA"}}, "key": {"Psy3": {"target": "T1, Psy3 (S. cerevisiae, UniProt Q12318 1-242)", "T1 sequence": "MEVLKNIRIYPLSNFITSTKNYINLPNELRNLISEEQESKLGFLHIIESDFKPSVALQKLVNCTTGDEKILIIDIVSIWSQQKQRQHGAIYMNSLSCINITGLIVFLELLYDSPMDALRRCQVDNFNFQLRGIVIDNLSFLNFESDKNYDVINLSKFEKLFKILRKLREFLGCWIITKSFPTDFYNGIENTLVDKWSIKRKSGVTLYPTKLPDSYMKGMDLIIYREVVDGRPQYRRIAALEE", "assay": "SEC"}, "Csm2;Psy3 [1]": {"target": "T2, Csm2;Psy3 (Saccharomyces cerevisiae;Saccharomyces …, UniProt P40465;Q12318 1-213;1-242, |)", "T2 sequence 1": "B1 chain", "T2 sequence 2": "T1 sequence", "assay": "fluorescence anisotropy"}, "Csm2;Psy3 [2]": {"target": "T2, Csm2;Psy3", "assay": "competition"}}, "data": [{"binder": "B1", "values": [{"measurement": "binding result", "setting": "Psy3", "result": "binds"}]}, {"binder": "B2", "values": [{"measurement": "Kd", "setting": "Csm2;Psy3 [1]", "result": "361 ± 10.9", "unit": "nM"}]}, {"binder": "B3", "values": [{"measurement": "binding result", "setting": "Csm2;Psy3 [2]", "result": "binds"}]}]}
